Measurements published in patent US20240000839A1 (CELLULAR BIOMEDICINE GROUP HK, published 2024).

Molecular target: T1, TNFRSF17 (Q02223), i.e., BCMA (UniProt Q02223 1-184)
T1 construct: whole, on cells; also called B cell maturation antigen; CD269
T1 sequence (looked up): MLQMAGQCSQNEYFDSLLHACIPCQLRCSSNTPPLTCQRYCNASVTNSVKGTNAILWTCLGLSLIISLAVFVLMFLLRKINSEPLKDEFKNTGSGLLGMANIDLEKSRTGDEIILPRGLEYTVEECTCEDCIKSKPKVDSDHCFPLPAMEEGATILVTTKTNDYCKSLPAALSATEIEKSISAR
Assay: flow cytometry, HEK293T membrane protein array, 20 ug/mL
Protocol: The light chain variable region of SEQ ID NO: 1 and the heavy chain variable region of SEQ ID NO: 2 were used to prepare a single chain antibody B20-scFv-rabFc, and membrane protein array experiment was performed.
20 ug/mL of B20-scFv-rabFc was added to HEK293T cell array transiently transfected with 5344 membrane proteins, respectively.

B1: B20-scFv-rabFc (Fc fusion)
scFv: DIQMTQSPSSLSASVGDRVTITCRASQGISNYLNWYQQKPGKAPKPLIYYTSNLQSGVPSRFSGSGSGTDYTLTISSLQPEDFATYYCMGQTISSYTFGQGTKLEIKGGGGSGGGGSGGGGSEVQLVESGGGLVQPGGSLRLSCAASGFTFSNFDMAWVRQAPGKGLVWVSSITTGADHAIYADSVKGRFTISRDNAKNTLYLQMNSLRAEDTAVYYCVRHGYYDGYHLFDYWGQGTLVTVSS
notes: not shown: rabbit Fc (rabFc)
  binding result: binds
